The source of these data is patent publication US20240360203A1.

Read-outs that look alike come from different tables or passages of the source.

Holding throughout (assay): cell-based or functional assay
The target in test [1] is SARS-CoV-2 BA.2 Spike on pseudovirus (SARS-CoV-2) (UniProt P0DTC2).
Test [2] deals with SARS-CoV-2 BA.2.12.1 Spike on pseudovirus (SARS-CoV-2) (UniProt P0DTC2).
In test [3] the target is SARS-CoV-2 BA.1 Spike on pseudovirus (SARS-CoV-2) (UniProt P0DTC2).
For test [4], the target named is SARS-CoV-2 Delta Spike on pseudovirus (SARS-CoV-2) (UniProt P0DTC2).
The target in test [5] is SARS-CoV-2 BA.2 Spike on pseudovirus (SARS-CoV-2) (UniProt P0DTC2). The source holds these as a separate data set.
The target of test [6] is SARS-CoV-2 BA.4/5 Spike on pseudovirus (SARS-CoV-2) (UniProt P0DTC2).
For test [7], the target named is SARS-CoV-2 BA.2.12.1 Spike on pseudovirus (SARS-CoV-2) (UniProt P0DTC2). This is another data set of the same source.
The target in test [8] is SARS-CoV-2 BA.1 Spike on pseudovirus (SARS-CoV-2) (UniProt P0DTC2). The source holds these as a separate data set.
In test [9] the target is SARS-CoV-2 Delta Spike on pseudovirus (SARS-CoV-2) (UniProt P0DTC2). The source holds these as a separate data set.
Test [10] addresses SARS-CoV-2 Delta (B.1.617.2) spike protein (SARS-CoV-2).
For test [11], the target named is SARS-CoV-2 BQ.1.1 spike protein (SARS-CoV-2).
Test [12] addresses SARS-CoV-2 XBB.1.5 spike protein (SARS-CoV-2).
Test [13] deals with SARS-CoV-2 Delta (B.1.617.2) spike protein (SARS-CoV-2). The source holds these as a separate data set.
Test [14] concerns the target SARS-CoV-2 BA.4/5 Spike on pseudovirus (SARS-CoV-2) (UniProt P0DTC2). This is another data set of the same source.
Test [15] addresses SARS-CoV-2 Delta (B.1.617.2) spike protein (SARS-CoV-2). The source holds these as a separate data set.
For test [16] the target is unchanged. The source holds these as a separate data set.
The target of test [17] is SARS-CoV-2 BN.1 spike protein (SARS-CoV-2).
The target of test [18] is SARS-CoV-2 BA.4.6 spike protein (SARS-CoV-2).
For test [19], the target named is SARS-CoV-2 BA.2.3.20 spike protein (SARS-CoV-2).
Test [20] concerns the target SARS-CoV-2 XBB.1 spike protein (SARS-CoV-2).
Test [21] concerns the target SARS-CoV-2 BA.1.1 spike protein (SARS-CoV-2).
Test [22] addresses SARS-CoV-2 BQ.1 spike protein (SARS-CoV-2).
Test [23] concerns the target SARS-CoV-2 BA.2.12.1 spike protein (SARS-CoV-2).
The target in test [24] is SARS-CoV-2 BF.7.14 spike protein (SARS-CoV-2).
Test [25] addresses SARS-CoV-2 BA.2.75 spike protein (SARS-CoV-2).
Test [26] has as its target SARS-CoV-2 BA.4/5 spike protein (SARS-CoV-2).
Test [27] addresses SARS-CoV-2 BA.1 spike protein (SARS-CoV-2).
Test [28] deals with SARS-CoV-2 BA.2.75.2 spike protein (SARS-CoV-2).
For test [29], the target named is SARS-CoV-2 BQ.1.1 spike protein (SARS-CoV-2). This is another data set of the same source.
The target of test [30] is SARS-CoV-2 CH.1.1 spike protein (SARS-CoV-2).
The target of test [31] is SARS-CoV-2 XBB.1.5 spike protein (SARS-CoV-2). This is another data set of the same source.
Test [32] addresses SARS-CoV-2 Delta (B.1.617.2) spike protein (SARS-CoV-2). This is another data set of the same source.
Test [33] deals with SARS-CoV-2 BA.2 spike protein (SARS-CoV-2).
The target of test [34] is SARS-CoV-2 BF.7 spike protein (SARS-CoV-2).
The target of test [35] is SARS-CoV-2 BA.4/5 Spike on pseudovirus (SARS-CoV-2) (UniProt P0DTC2). The source holds these as a separate data set.

As to AZD8895 (antibody), the IC50, pseudovirus neutralization in test [1] came out at 608 ng/mL; in test [2], 415 ng/mL; in test [3], 1160 ng/mL; in [4] it was 0.5 ng/mL. Also, the % neutralization at 4.5 µg/ml, pseudovirus was determined as 93.9% in [5]; 25.8% in test [6]; 94.2% in test [7]; 96.5% in [8]; 102% in [9].

With Bebtelovimab (antibody), the pseudovirus neutralization EC50, Vero E6 (bebtelovimab + isotype) in test [10] is 0.44 ng/mL; in test [32], 0.63 ng/mL. For the same substance, the pseudovirus neutralization Emax, Vero E6 (bebtelovimab + isotype) (% neutralization) in test [11] came to 55.6; in [12], 0.55; in [13], 99.7; in test [29], 59.1; in test [31], 4.21; in test [32] it was 99.7. The substance further displayed an IC50, pseudovirus neutralization in test [14] of 0.3 ng/mL. For the same substance, the pseudovirus neutralization EC90, Vero E6 (bebtelovimab + isotype) in test [15] is 12 ng/mL; in test [32] it was 13 ng/mL. Further, the pseudovirus neutralization EC80, Vero E6 (bebtelovimab + isotype) in [16] stood at 3.5 ng/mL; in [32], 4.2 ng/mL. The pseudovirus neutralization EC50 in [17] was 0.467 ng/mL; in test [18] it was 0.2 ng/mL; in test [19] it was 12 ng/mL; in [21] it was 0.12 ng/mL; in test [23], 0.2 ng/mL; in test [24], 0.22 ng/mL. Moreover, the pseudovirus neutralization EC50 was found to be 0.65 ng/mL in test [25]; 0.073 ng/mL in test [26]; 0.17 ng/mL in test [27]; 0.46 ng/mL in test [28]; 3.8 ng/mL in test [32]; 0.2 ng/mL in test [33]. The substance further showed a pseudovirus neutralization EC50 in [34] of 0.11 ng/mL. Also, the pseudovirus neutralization EC80 was determined as 5.3 ng/mL in [17]; 2.5 ng/mL in test [18]; 360 ng/mL in test [19]; 1.3 ng/mL in test [21]; 1.2 ng/mL in test [23]; 1.4 ng/mL in test [24]. The pseudovirus neutralization EC80 in [25] was 8.2 ng/mL; in test [26], 1.2 ng/mL; in test [27], 1.8 ng/mL; in test [28] it was 6.3 ng/mL; in test [32] it was 23 ng/mL; in test [33], 1.4 ng/mL. This substance also showed a pseudovirus neutralization EC80 in test [34] of 1.7 ng/mL. The pseudovirus neutralization EC90 worked out at 22 ng/mL in test [17]; 11 ng/mL in test [18]; 2600 ng/mL in test [19]; 5.6 ng/mL in test [21]; 3.6 ng/mL in test [23]; 4.1 ng/mL in test [24]. Moreover, the pseudovirus neutralization EC90 in test [25] is 36 ng/mL; in test [26] it was 6.4 ng/mL; in test [27], 7.2 ng/mL; in [28], 29 ng/mL; in [32] it was 66 ng/mL; in test [33], 4.4 ng/mL. The same substance yielded a pseudovirus neutralization EC90 in test [34] of 8.5 ng/mL. The pseudovirus neutralization Emax (% neutralization) stood at 99.4 in [17]; 99.6 in [18]; 97.9 in test [19]; 10.8 in test [20]; 99.9 in test [21]; 72.2 in test [22]. The pseudovirus neutralization Emax (% neutralization) in [23] came to 99.9; in test [24], 99.8; in [25] it was 99.5; in test [26], 99.8; in test [27] it was 99.8; in [28], 99.5. For the same substance, the pseudovirus neutralization Emax (% neutralization) in [29] came to 53; in test [30], 5.32; in test [31], 2.01; in test [32], 99.9; in test [33] it was 99.9; in test [34], 99.8. Further, the figures for the pseudovirus neutralization Emax, TMPRSS2-Vero E6 (bebtelovimab + isotype) (% neutralization) in test [29], in test [31] and in test [32] were 40.5, 2.93 and 99.7, respectively. The pseudovirus neutralization EC50, TMPRSS2-Vero E6 (bebtelovimab + isotype) in [32] turned out to be 1.6 ng/mL. Moreover, the pseudovirus neutralization EC80, TMPRSS2-Vero E6 (bebtelovimab + isotype) in test [32] was 13 ng/mL. Also, the pseudovirus neutralization EC90, TMPRSS2-Vero E6 (bebtelovimab + isotype) in [32] is 43 ng/mL.

In the case of AZD1061 (antibody), the IC50, pseudovirus neutralization in test [1] was determined as 5.8 ng/mL; in [35], 41.2 ng/mL; in test [2], 5.1 ng/mL; in test [3] it was 1220 ng/mL; in test [4], 5.9 ng/mL. Besides, the % neutralization at 4.5 µg/ml, pseudovirus in [5] came to 99.7%; in test [6], 96.7%; in test [7] it was 99.8%; in [8], 83.9%; in [9] it was 100%.

Take Sotrovimab VH/VL-hamIgG2a (antibody): the pseudovirus neutralization EC50, Vero E6 in [33] worked out at 361 ng/mL.

In the case of “Sotrovimab VH/VL (human IgG1 molecule expressing the same variable regions of Sotrovimab) (antibody)”, the IC50, pseudovirus neutralization in test [14] amounted to 424 ng/mL; in [1] it was 392 ng/mL; in [35], 666 ng/mL; in test [2], 714 ng/mL; in test [3] it was 63.3 ng/mL; in [4], 12.3 ng/mL. The IC50, pseudovirus neutralization in test [5] was 704 ng/mL; in test [6] it was greater than 4500 ng/mL; in [7], 1200 ng/mL; in test [9] it was 65 ng/mL. The % neutralization at 4.5 µg/ml, pseudovirus in test [5] was found to be 73.1%; in [6], 60.5%; in [7], 76.9%; in test [8], 99.4%; in test [9] it was 101%.

As for Sotrovimab VH/VL-huIgG1 (antibody), in [33], the pseudovirus neutralization EC50, Vero E6 is 862 ng/mL.
